# From paper PMC10786891, “Massively parallel profiling of RNA-targeting CRISPR-Cas13d”
# Where a chain is given by its changes, count along the chain named. Numbers in names are those of the source.
# T1: EsCas13d, nuclease-dead (Eubacterium siraeum, UniProt B0MS50, R295A;H300A;R849A;H854A)
# T1 sequence: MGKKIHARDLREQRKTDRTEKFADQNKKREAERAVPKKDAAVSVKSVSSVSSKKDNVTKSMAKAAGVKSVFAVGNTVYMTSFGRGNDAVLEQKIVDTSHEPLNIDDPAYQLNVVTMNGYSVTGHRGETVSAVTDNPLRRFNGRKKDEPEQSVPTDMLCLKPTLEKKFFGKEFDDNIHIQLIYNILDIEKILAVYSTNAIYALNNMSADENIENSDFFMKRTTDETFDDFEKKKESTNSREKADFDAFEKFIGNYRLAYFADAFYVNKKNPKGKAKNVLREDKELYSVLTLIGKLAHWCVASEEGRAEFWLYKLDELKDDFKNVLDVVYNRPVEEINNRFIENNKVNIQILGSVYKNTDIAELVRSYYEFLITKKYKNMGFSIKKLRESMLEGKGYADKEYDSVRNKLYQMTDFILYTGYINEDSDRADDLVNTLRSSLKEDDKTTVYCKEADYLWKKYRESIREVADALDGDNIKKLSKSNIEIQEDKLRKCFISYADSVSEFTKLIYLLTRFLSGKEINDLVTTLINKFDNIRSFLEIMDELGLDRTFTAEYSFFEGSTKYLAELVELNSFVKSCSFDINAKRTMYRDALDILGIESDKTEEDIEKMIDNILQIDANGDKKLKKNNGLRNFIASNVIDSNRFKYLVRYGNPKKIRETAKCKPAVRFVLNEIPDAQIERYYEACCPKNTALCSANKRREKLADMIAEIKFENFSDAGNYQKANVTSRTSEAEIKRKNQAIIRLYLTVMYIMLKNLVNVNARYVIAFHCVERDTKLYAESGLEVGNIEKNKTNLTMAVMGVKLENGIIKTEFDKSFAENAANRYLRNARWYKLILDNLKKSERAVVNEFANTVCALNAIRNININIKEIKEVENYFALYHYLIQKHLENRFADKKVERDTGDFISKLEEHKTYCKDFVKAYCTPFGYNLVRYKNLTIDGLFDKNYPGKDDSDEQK
# B1: target 1 U10C,A20U (mixed)
# RNA 1: CACCCGUGCAAAAAUGCAGGGGUCUAAAACUGAGCGGAUAACCUCUCUAUGG
# RNA 2: GGGAAUGGAUCCACAUCUACGAAUUCGUACCUUAGAGAGGUCAUCCGCUCACCGAGAUCGGAAGAGCACACGU
# B2: target 1 A14G,G15A (mixed)
# RNA 1: B1 RNA 1
# RNA 2: B1 RNA 2 with U32A, G37A, A38G, C42U
# B3: target 1 insA 3' of 4,insA 3' of 3 (mixed)
# RNA 1: B1 RNA 1
# RNA 2: GGGAAUGGAUCCACAUCUACGAAUUCGUACCAUAGAGAGGUUAUCCGCAUACACCGAGAUCGGAAGAGCACACGU
# B4: target 1 insG 3' of 14,insC 3' of 13 (mixed)
# RNA 1: B1 RNA 1
# RNA 2: B3 RNA 2 with U41C, U42G, A43U, C45A, C46U, G47C, A49G, U50C, A51U
# B5: target 1 insA 3' of 6,insA 3' of 5 (mixed)
# RNA 1: B1 RNA 1
# RNA 2: B3 RNA 2 with G47A, C48G, U50C, A51U
# B6: target 1 del8,del16 (mixed)
# RNA 1: B1 RNA 1
# RNA 2: GGGAAUGGAUCCACAUCUACGAAUUCGUACCAUAGGAGGUUACCGCUCACCGAGAUCGGAAGAGCACACGU
# B7: target 1 U11A,C22A (mixed)
# RNA 1: B1 RNA 1
# RNA 2: B1 RNA 2 with C30A, U32A, U41A, C42U
# B8: target 1 insU 3' of 14,insA 3' of 13 (mixed)
# RNA 1: B1 RNA 1
# RNA 2: GGGAAUGGAUCCACAUCUACGAAUUCGUACCAUAGAGAUGAGUUAUCCGCUCACCGAGAUCGGAAGAGCACACGU
# B9: target 1 insC 3' of 13,insG 3' of 4 (mixed)
# RNA 1: B1 RNA 1
# RNA 2: GGGAAUGGAUCCACAUCUACGAAUUCGUACCAUAGAGAGCGUUAUCCGCGUCACCGAGAUCGGAAGAGCACACGU
# B10: target 1 del4,del11 (mixed)
# RNA 1: B1 RNA 1
# RNA 2: B6 RNA 2 with G36A, A37G, G38A, U40G, C43U, G45C, C46G
# B11: target 1 A9G,G17A (mixed)
# RNA 1: B1 RNA 1
# RNA 2: B1 RNA 2 with U32A, G35A, C42U, A43G
# B12: target 1 G17U,C22A (mixed)
# RNA 1: B1 RNA 1
# RNA 2: B1 RNA 2 with C30A, U32A, G35U, C42U
# B13: target 1 insC 3' of 8,insG 3' of 4 (mixed)
# RNA 1: B1 RNA 1
# RNA 2: B9 RNA 2 with C40G, G41U, U43A, A44U, U45C
# B14: target 1 insA 3' of 3,insG 3' of 3 (mixed)
# RNA 1: B1 RNA 1
# RNA 2: B3 RNA 2 with A49U, U50A, A51G
# B15: target 1 U3G,U8G (mixed)
# RNA 1: B1 RNA 1
# RNA 2: B1 RNA 2 with U32A, C42U, U44G, U49G
# B16: target 1 C6U,A18C (mixed)
# RNA 1: B1 RNA 1
# RNA 2: B1 RNA 2 with U32A, A34C, C42U, C46U
# B17: target 1 insA 3' of 22,insA 3' of 3 (mixed)
# RNA 1: B1 RNA 1
# RNA 2: GGGAAUGGAUCCACAUCUACGAAUUCGUACACAUAGAGAGGUUAUCCGCUACACCGAGAUCGGAAGAGCACACGU
# B18: target 1 insC 3' of 9,insU 3' of 2 (mixed)
# RNA 1: B1 RNA 1
# RNA 2: B9 RNA 2 with C40G, G41U, U43A, A44C, G50U, U51C, C52U
# B19: target 1 C6A,G17U (mixed)
# RNA 1: B1 RNA 1
# RNA 2: B1 RNA 2 with U32A, G35U, C42U, C46A
# B20: target 1 insC 3' of 12,insC 3' of 10 (mixed)
# RNA 1: B1 RNA 1
# RNA 2: B8 RNA 2 with U39G, A41C, G42U, U44C
# B21: target 1 G13A,A18C (mixed)
# RNA 1: B1 RNA 1
# RNA 2: B1 RNA 2 with U32A, A34C, G39A, C42U
# B22: target 1 insA 3' of 13,insU 3' of 5 (mixed)
# RNA 1: B1 RNA 1
# RNA 2: B9 RNA 2 with C40A, C49U, G50C
# B23: target 1 insA 3' of 22,insG 3' of 9 (mixed)
# RNA 1: B1 RNA 1
# RNA 2: B17 RNA 2 with U45G, C46U, G48C, C49G, U50C, A51U
# B24: target 1 A16G (mixed)
# RNA 1: B1 RNA 1
# RNA 2: B1 RNA 2 with U32A, A36G, C42U
# B25: target 1 insA 3' of 5,insC 3' of 5 (mixed)
# RNA 1: B1 RNA 1
# RNA 2: B3 RNA 2 with C48A, A49C, U50C, A51U
# B26: target 1 insU 3' of 17,insU 3' of 17 (mixed)
# RNA 1: B1 RNA 1
# RNA 2: B8 RNA 2 with A36U, G37U, U39G, G40A, A41G
# B27: target 1 del11,del14 (mixed)
# RNA 1: B1 RNA 1
# RNA 2: B6 RNA 2 with G36A, A37G, U41A, A42U
# B28: target 1 insC 3' of 22,insA 3' of 5 (mixed)
# RNA 1: B1 RNA 1
# RNA 2: B17 RNA 2 with A31C, C49A, U50C, A51U
# B29: target 1 insG 3' of 11,insU 3' of 4 (mixed)
# RNA 1: B1 RNA 1
# RNA 2: B9 RNA 2 with C40G, G41U, U42G, G50U
# B30: target 1 insA 3' of 5,insA 3' of 4 (mixed)
# RNA 1: B1 RNA 1
# RNA 2: B3 RNA 2 with C48A, A49C, U50A, A51U
# B31: target 1 C2A,A16G (mixed)
# RNA 1: B1 RNA 1
# RNA 2: B1 RNA 2 with U32A, A36G, C42U, C50A
# B32: target 1 U11G,G17A (mixed)
# RNA 1: B1 RNA 1
# RNA 2: B1 RNA 2 with U32A, G35A, U41G, C42U
# B33: target 1 insA 3' of 17,insC 3' of 11 (mixed)
# RNA 1: B1 RNA 1
# RNA 2: B8 RNA 2 with G37A, A38G, U39A, A41G, G42U, U43C
# B34: target 1 insU 3' of 6,insG 3' of 6 (mixed)
# RNA 1: B1 RNA 1
# RNA 2: B3 RNA 2 with G47U, C48G, A49G, U50C, A51U
# B35: target 1 insC 3' of 12,insG 3' of 3 (mixed)
# RNA 1: B1 RNA 1
# RNA 2: B9 RNA 2 with C40G, G41C, G50U, U51G
# Target: T1, EsCas13d, nuclease-dead
# Assay: crRNA (strand 1, pre-loaded); Mg2+; 40 mM Tris-HCl pH 7.5, 150 mM NaCl, 6 mM MgCl2, 1 mM DTT, 0.1% Tween-20, 0.2 mg/ml BSA; 25 C; 10 min per concentration, then washed
# Conditions: tags: His6-TwinStrep-SUMO cleaved; N-terminal SNAP kept (SNAP-Surface 488); label: 3' end held by stalled T7 RNA polymerase
row,Binder,Kd [nM]
1,B1,99 ± 14
2,B2,14.8 ± 1.5
3,B3,7.01 ± 0.33
4,B4,13.7 ± 0.9
5,B5,53 ± 6
6,B6,71 ± 18
7,B7,47 ± 6
8,B8,9.2 ± 0.8
9,B9,5.33 ± 0.22
10,B10,100 ± 40
11,B11,57 ± 12
12,B12,31.3 ± 3
13,B13,12.8 ± 0.8
14,B14,6.2 ± 0.5
15,B15,10.8 ± 0.4
16,B16,58 ± 7
17,B17,11.1 ± 0.6
18,B18,13.9 ± 0.9

row,Binder,Kd [nM]
1,B19,18.7 ± 1.2
2,B20,23.9 ± 2.9
3,B21,51 ± 8
4,B22,4.34 ± 0.32
5,B23,19.6 ± 1
6,B24,29.4 ± 1.4
7,B25,11.3 ± 1
8,B26,27.7 ± 3.2
9,B27,32.4 ± 1.8
10,B28,19 ± 4
11,B29,65 ± 15
12,B30,9.8 ± 1.1
13,B31,28.5 ± 2
14,B32,74 ± 22
15,B33,51 ± 10
16,B34,13.1 ± 0.5
17,B35,7.6 ± 0.7
